This test addresses two kinds of spike viruses (Wuhan type S, European type SD614G). The test can be described thus: cell-based or functional assay.

The values below come from patent US20230312689A1.

B1: CTMA9-105 (antibody, V domains shown)
VH: EVQLVESGGGLIQPGGSLRLSCAASGITVSSNYMSWVRQAPGKGLEWVSLIYSGGSTYYADSVKGRFTISRDNSKNTLYLQMNSLRAEDTAVYYCARDLEEAGGMDVWGQGTTVTVSS
VL: DIVMTQSPGTLSLSPGERATLSCRASQSVPSIYLAWYQQRPGQAPRLLIYGASSRATGIPDRFSGSGSGTDFTLTISRLEPEDFAVYYCQQYGSSPGTFGQGTKVEIK
The molecule B1 had an IC50, pseudovirus neutralization test using the purified antibody of 2 to 6 ng/mL.
